Consider 1 protein from doi:10.1101/2023.05.25.542057 (bioRxiv, 2023).

This data set concerns the molecule itself. In words: SEC-SAXS.

B1: CDAN1-interacting nuclease 1 (CDIN1), full-length, recombinant from bacteria (natural protein)
chain: MILTKAQYDEIAQCLVSVPPTRQSLRKLKQRFPSQSQATLLSIFSQEYQKHIKRTHAKHHTSEAIESYYQRYLNGVVKNGAAPVLLDLANEVDYAPSLMARLILERFLQEHEETPPSKSIINSMLRDPSQIPDGVLANQVYQCIVNDCCYGPLVDCIKHAIGHEHEVLLRDLLLEKNLSFLDEDQLRAKGYDKTPDFILQVPVAVEGHIIHWIESKASFGDECSHHAYLHDQFWSYWNRFGPGLVIYWYGFIQELDCNRERGILLKACFPTNIVTLCHSIA
As usually defined, the stoichiometry N is a count of units in the complex or per binding partner. For B1, the “stoichiometry N” value was found to be 2.
